# Assay results from article PMC4382515.
# Substrate: N[C@@H](CCC(=O)O)C(=O)O
# Assay: purified protein
# Conditions: pH 4.6; 25.0 °C
protein,measurement,value
EcGadB (Escherichia coli K-12) (protein) MDKKQVTDLRSELLDSRFGAKSISTIAESKRFPLHEMRDDVAFQIINDELYLDGNARQNLATFCQTWDDENVHKLMDLSINKNWIDKEEYPQSAAIDLRCVNMVADLWHAPAPKNGQAVGTNTIGSSEACMLGGMAMKWRWRKRMEAAGKPTDKPNLVCGPVQICWHKFARYWDVELREIPMRPGQLFMDPKRMIEACDENTIGVVPTFGVTYTGNYEFPQPLHDALDKFQADTGIDIDMHIDAASGGFLAPFVAPDIVWDFRLPRVKSISASGHKFGLAPLGCGWVIWRDEEALPQELVFNVDYLGGQIGTFAINFSRPAGQVIAQYYEFLRLGREGYTKVQNASYQVAAYLADEIAKLGPYEFICTGRPDEGIPAVCFKLKDGEDPGYTLYDLSERLRLRGWQVPAFTLGGEATDIVVMRIMCRRGFEMDFAELLLEDYKASLKYLSDHPKLQGIAQQNSFKHT,Km,1100 ± 180 µM
same,kcat/Km,13900 ± 2830 M⁻¹ s⁻¹
